This note sets out measurements from paper PMC10865538 (2024).

Sequences and labels used below:
B1: sdAb12 (VHH)
VHH: EVQLVESGGGLVQPGGSLRLSCAASGNTFPARTMSWVRQAPGKGLELVASIGRGEITYYADSVKGRFTISRDNSKNTLYLQMNSLRAEDTAVYYCAAPAHGSWMSRRPHIYWGQGTLVTVSS
B2: sdAb38 (VHH)
VHH: EVQLVESGGGLVQPGGSLRLSCAASGNTSTRHPMSWVRQAPGKGLELVASIGRGEITYYADSVKGRFTISRDNSKNTLYLQMNSLRAEDTAVYYCAVCLRSVFVNCHNFAYWGQGTLVTVSS
B3: sdAb42 (VHH)
VHH: EVQLVESGGGLVQPGGSLRLSCAASGNTSTRHPMSWVRQAPGKGLELVASIGRGEITYYADSVKGRFTISRDNSKNTLYLQMNSLRAEDTAVYYCAVDAVFGGRHSHWGQGTLVTVSS
B4: sdAb39 (VHH)
VHH: EVQLVESGGGLVQPGGSLRLSCAASGNTSTRHPMSWVRQAPGKGLELVASIGRGEITYYADSVKGRFTISRDNSKNTLYLQMNSLRAEDTAVYYCAAFVDFLSRHNSRRPYPHGYWGQGTLVTVSS
B5: sdAb10 (VHH)
VHH: EVQLVESGGGLVQPGGSLRLSCAASGNTFPARTMSWVRQAPGKGLELVASIGPGRSTIYADSVKGRFTISRDNSKNTLYLQMNSLRAEDTAVYYCAVAYTSGLALRGSFSYWGQGTLVTVSS

The test addresses SARS-CoV-2 S protein receptor-binding domain (R319-F541) (SARS-CoV-2, UniProt P0DTC2 319-541). As to the kind of experiment: ELISA.
B1 yielded a concentration for a half-maximal effect (EC50) of 0.0601 µM.

In turn, B2 displayed an EC50 of 0.0461 µM.

The molecule B3 came in with an EC50 of 0.002 µM. This EC50 lies about 23-fold lower than the previous one.

Take B4: the response was half-maximal at 0.0043 µM (EC50).

Turning to B5, the 50% effective concentration (EC50) turned out to be 0.0222 µM. This EC50 lies about 5.2-fold higher than the previous one.
